# Target: the molecule itself
# Assay: cryo-EM structure; purified MmIGF1R and HsIGF1 mixed at molar ratio 1:2, 1 h at 4 °C, complex purified by SEC in 20 mM Hepes-Na pH 7.4, 200 mM NaCl, 0.03% DDM; 4.3 Å
protein,measurement,value
"full-length mouse IGF1R (MmIGF1R), residues 1–1262, Y951A, D1107N (receptor, Mouse type 1 insulin-like growth factor receptor with C-terminal tail truncation and kinase dead mutation, residues 1–1262, Y951A, D1107N; Disulfide-linked covalent dimer of two protomers; it is written here as one chain per protomer; also called type 1 insulin-like growth factor receptor; not shown: Tsi3, C-terminal, cleaved) not shown",stoichiometry N,2

# Source: PMC6783537, “Structural basis of the activation of type 1 insulin-like growth factor receptor” (Nature Communications, 2019)
